These results are taken from patent US8394929B2, “Nogo receptor-mediated blockade of axonal growth” (Yale University, priority 2000, dated 2013).

Holding throughout (assay type): cell-based
The subject of experiment [1] is TPA-induced growth cone collapse. Nature of the experiment: TPA-induced growth cone collapse in E12 chick DRG explants. The procedure: For further testing, a synthetic peptide containing amino acid residues #1055-1094 of hNgR, acetylated at the […] was used [hereinafter “Peptide 140”]. […] Antagonist of Nogo-66 inhibitory activity may act by competing for, and thereby blocking NgR binding sites. To determine the antagonistic activity of Peptide 140, the above synthetic form of the peptide was added to E12 chick DRG explant cultures approximately 10 min before application of various concentrations of GST-NogoA (residues #1055-1120), TPA or Sema3A. 30 min later, cultures were fixed and growth cone collapse was assessed following staining with rhodamine-phalloidin.

Experiment [2] concerns CNS myelin induced growth cone collapse. Nature of the experiment: Blockade of CNS myelin induced growth cone collapse in chick DRG cultures. On the procedure: In the growth cone collapse assay, the response to Nogo was measured in the presence of various potential antagonistic peptides. […] This blockade supports the hypothesis that Nogo is a primary inhibitory component of CNS myelin.
To determine the antagonistic activity of Peptide 140 against CNS myelin, the above synthetic peptide was added approximately 10 min before application of CNS myelin. 30 min later, cultures were fixed and growth cone collapse was assessed following staining with rhodamine-phalloidin. For neurite outgrowth assays, plastic chamber slide were coated with 100 μg ml^−1 poly-L-lysine, washed, and dried. 3 μl drops of PBS containing CNS myelin were spotted and dried. Slides were then rinsed and coated with 10 μg ml fs24^−1 laminin before addition of dissociated E12 chick DRGs. Peptide 140, or the scrambled version of Peptide 140, was added at the time of cell plating. Cultures were grown for 5-7 h after which neurite outgrowth was assessed.

In another experiment the target is T1, wild-type NgR (wtNgR) (Mus musculus, UniProt Q99PI8).
T1 construct: expressed in transfected cells; host or cells: chick E7 retinal ganglion cell explants infected with recombinant HSV
T1 sequence (Q99PI8 27-447): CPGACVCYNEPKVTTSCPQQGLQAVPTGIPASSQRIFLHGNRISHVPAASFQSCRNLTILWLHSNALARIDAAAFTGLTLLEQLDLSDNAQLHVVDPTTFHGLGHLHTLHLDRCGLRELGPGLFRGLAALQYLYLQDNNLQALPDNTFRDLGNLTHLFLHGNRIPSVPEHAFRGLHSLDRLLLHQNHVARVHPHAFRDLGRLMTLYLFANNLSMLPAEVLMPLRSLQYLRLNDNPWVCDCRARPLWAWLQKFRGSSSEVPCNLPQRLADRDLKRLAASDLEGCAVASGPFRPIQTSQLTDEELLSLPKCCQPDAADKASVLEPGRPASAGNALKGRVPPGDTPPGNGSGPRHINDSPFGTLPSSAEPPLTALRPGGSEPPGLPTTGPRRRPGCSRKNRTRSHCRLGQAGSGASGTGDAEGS
Nature of the experiment: Growth cone collapse in E7 retinal ganglion cells infected with HSV wild-type NgR. On the procedure: (§1) Both dorsal root ganglion and retinal neurons from E7 chick embryos were examined. The Nogo responses in the dorsal root ganglion neurons from this developmental stage are weak but slight responses can be detected in some cultures (data not shown).
Because the mouse NgRCT domain was determined to be dispensable for hNogo-A (1055-1120) binding, the ability of NgRΔCT to mediate Nogo-dependent inhibition was examined. HSVNgR constructs transfected into HEK293T cells mediated the expression of mNgR proteins of the predicted molecular weight, as determined by SDS-PAGE and anti-Myc and anti-NgR immunoblotting (FIG. 19A). Day E7 chick retinal ganglion cells (RGCs) were grown for 12 hr, then further incubated for 24 hr with HSVNgR preparations. Explants were fixed with 4% paraformaldehyde with 0.1 M PO4 and 20% sucrose and stained with phalloidin or with anti-myc antibodies. HSVNgR protein expression was detected in axons of infected (RGC) cultures (FIG. 19B).
Growth cone collapse in response to GST-hNogo-A (1055-1120) was investigated in infected RGC cultures. Retinal explants infected with recombinant viral preparations of PlexinA1 (PlexA1), wild-type NgR (wtNgR), NgRL1 chimeric receptor in which the GPI domain has been replaced by the transmembrane region and cytoplasmic tail from the mouse adhesion protein L1 (NgRL1), or NgR carboxy terminal deletion mutant (NgRΔCT) for 12 hr. […]

In another experiment the test system is PlexinA1 (PlexA1). Nature of the experiment: Growth cone collapse in E7 retinal ganglion cells infected with control HSV PlexinA1.
Source text: as §1
Growth cone collapse in response to GST-hNogo-A (1055-1120) was investigated in infected RGC cultures. Retinal explants infected with recombinant viral preparations of PlexinA1 (PlexA1), wild-type NgR (wtNgR), NgRL1 chimeric receptor in which the GPI domain has been replaced by the transmembrane region and cytoplasmic tail from the mouse adhesion protein L1 (NgRL1), or NgR carboxy terminal deletion mutant (NgRΔCT) for 12 hr. Following infection, the cells were treated for 30 min with 0, 50, 250, or 500 nM GST-hNogo-A (1055-1120) (GrandPre et al., Nature 403: 439-444, 2000), fixed with 4% paraformaldehyde with 0.1 M PO4 and 20% sucrose, and stained with phalloidin. […] Cells infected with NgRΔCT were insensitive to GST-hNogo-A (1055-1120). The CT region of NgR is therefore required for effective NgR inhibitory signaling.

The mark [3] stands for this setting: listed as GST-hNogo-A (1055-1120).

Consider “Peptide 140: synthetic peptide of amino acids #1055-1094 of the human NogoA protein, acetylated and amidated at the termini (Ac-RIYKGVIQAIQKSDEGHPFRAYLESEVAISEELVQKYSNS-NH2; UniProt Q9NQC3 1055-1094, looked up, fragment)”, for which the “effect on TPA-induced growth cone collapse (in words)” value in experiment [1] is on record as “no significant reduction in collapse”. Moreover, the “blockade of CNS myelin induced growth cone collapse (in words)” value was “had no effect on inhibitory activity” in experiment [2] (high doses / higher concentrations of CNS myelin) and “reduces myelin induced growth cone collapse to control levels” in experiment [2] (low dose / lowest concentrations of CNS myelin).

B1: GST-Nogo: GST fusion protein of the 66 amino acid lumenal-extracellular fragment of Nogo-A, expressed in E. coli (protein)
chain: RIYKGVIQAIQKSDEGHPFRAYLESEVAISEELVQKYSNSALGHVNCTIKELRRLFLVDDLVDSLK
modifications: also: GST fusion protein
notes: GST fusion protein of the 66 amino acid lumenal-extracellular fragment of Nogo-A, expressed in E. coli
Consider B1, for which the “growth cone collapse response (in words)” value with wild-type NgR (wtNgR) (setting [3]) was “underwent growth cone collapse”; in the experiment with wild-type NgR (wtNgR) (listed as Nogo-66) it was “sensitive to Nogo-66-induced collapse”; in the experiment with PlexinA1 (PlexA1) (setting [3]), “did not respond”; in the experiment on PlexinA1 (PlexA1) (listed as Nogo-66), “does not alter Nogo responses”.
